From the nanobody polyreactivity screen of Harvey et al. (2022)

Test: yeast display, Sf9 membrane polyspecificity reagent, FACS + sequencing; frameworks hold sequencing errors
Outline: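 Galactose induction of a Saccharomyces cerevisiae BJ5465 synthetic nanobody display library ran 36–48 hours. The cells were then stained for 1 hour at 4 °C with 10% biotinylated, detergent-solubilized Sf9 membrane reagent, pulled down on streptavidin microbeads and FACS-sorted into low and high (top ~1%) gates on expression and reagent-binding fluorescence. Labels for polyreactivity follow the gate of origin.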

Sequence	polyreactivity (PSR sort gate)
QVQLVESGGGLVQAGGSHRLSCSASGSNFRDYAMGWYRQAPGKERELVAAISWSSSRTYYADSVKGRFTISRDNAKNTVYLQMNSLKPEDTAVYYCNKLSIWSYYFGPYGYDYWGQGTQVTVSS	low polyreactivity
QVQLVESGGGLVQAGGSHRLSSAASGSTFAKNAMGWYRQARGKESELVATISRGGSTNYADSVKGRFTISRDNAKNTVYLQMNSLKPEDTAVYYCNADRVRTAVYSYVYAYGIMNYSGQGTQVTVSS	low polyreactivity
QVQLVESGGGLVQAGGSHRLTCAASGRTFIFYAMGWYRPEPGKERELVAAITYSGTSTYYADSVKGRFTISRDNAKNTVYLQMNSLKPEDTAVYYCAKDGQRDANYYWGQGTQVTVSS	low polyreactivity
QVQLVESGGGLVQAGGSIRLSCAASASIFQSYAMGWYRQAAGKERELVATITYSAGSTYYSDSVKGRFTITRDNAKNTVYLQMNSLKPEDTAVYYCDARRRGTIKTRMDYWGQGTQVTVSS	high polyreactivity
QVQLVESGGGLVQAGGSIRLSCAASGFIFGGYAMGWYRQAPGKERELVAAITRSGGSTYYADSVKGRFTISRDNAKTTVYFQMNSLKPEDTAVYYCAAVPYRKHSYPFRLNYWGQGTQVTVSS	high polyreactivity
QVQLVESGGGLVQAGGSIRLSCAASGFIFNHYAMGWYRQAPVKEREFVAAISWSGTRTYYADSVKGRFTISRDNAKNTVYLQMNSLKPEDTAVYYCAADVWGPYDYWGQGTQVTVSS	low polyreactivity
QVQLVESGGGLVQAGGSIRLSCAASGFTFAKYSMGWYRQAPVKERELVATITRGGNTYYADSVKGRFTISRDNAKNTVYLQMNSLKPEDTAVYYCAASWYRFSQYKYYYWGQGTKVTVSS	high polyreactivity
QVQLVESGGGLVQAGGSIRLSCAASGFTFYYNTMGCYRQAPGKERELVAAISYSAGSTFYADSVKGRFTISRDNAKNTVYLQMNSLKTEDTAVYYCAAGRPRRHKGYHFGYWGQGTQVTVSS	low polyreactivity
QVQLVESGGGLVQAGGSIRLSCAASGITFYRNARGWYRQAPGKEMELVAAITWNGGRTYYADSVKGRFTISRDNAKNTVYLQMNSLKPEDTAVYYCAAAYPTYRHYYWGQGTQVTVSS	low polyreactivity
QVQLVESGGGLVQAGGSIRLSCAASGITFYVYTLGWYRQAAGKERELVAAINGSGGSTNYADSVKGRFTITRDNEKNTVYLQMNSLKREDTAVYYCNAPVVYFWPLNFDYWGQGTQVTVSS	low polyreactivity
QVQLVESGGGLVQAGGSIRLSCAASGNTFRYYAMGWYRQAPGKERELVAGISRRGGSTYYADSVKGRFTISRDNAKNTVYLQMNSLKPEDTAVYYCNAVGGNGAVVAYGYWGQGTQVTVSS	high polyreactivity
QVQLVESGGGLVQAGGSIRLSCAASGRIFHPYAMGWYRQAPGKERELVATISWSGGSTTYADSVKGRFTISRDNAKNTVYLQMNSLKPEDTAVYYCNADYWWSYVRFDYWGQGTQVTVSS	low polyreactivity
QVQLVESGGGLVQAGGSIRLSCAASGRIFWGNGMGWYRQAPGKEREFVAAISKSGGSTYYPDSVKGRFTISRDNAKNTVYLQMNSLKPEDTAVYYCAARAPYSYSGYGYWGQGTQVTVSS	high polyreactivity
QVQLVESGGGLVQAGGSIRLSCAASGRIFYTYAMGWYRPAPGKERELVAAISSRTGSTYYADSVKGRFTISRDNAKNTVYLQMNSLKPEDTAVYYCNAYRLRYGYDYWGQGTQVTVSS	high polyreactivity
QVQLVESGGGLVQAGGSIRLSCAASGRTFSAYAMGWYRQEPGKVRELVARITSVDSTNYADSVKGRFTISRDNAKNTVYLQMNSLKPEDTAVYYSNATFGYPLVDYDDYWGQGTQVTVSS	low polyreactivity
QVQLVESGGGLVQAGGSIRLSCAASGRTFYLYAMGWYRQAPGKERELVAVISRRGGRTYYADSVKGRFTISRDNSKNTVYLQMNSLKPEDTAVYYCAVYSFGMGYWGQGTQVTVSS	high polyreactivity
QVQLVESGGGLVQAGGSIRLSCAASGSTFSHNAMGWYRQAPGKERELVAAIRWNGGSTYYADSVKGRFTISRDNAKNTVYLQMNSLKPEDTAVYYCAKENHYFTQGYGYWGQGTQVTVSS	low polyreactivity
QVQLVESGGGLVQAGGSIRLSCAASGVIFYGNSIGWYRQAPGKERELVAAISRRGGRTYYADSVKGRFTNSRDNAKITVYLQMNSLKPEDTAVYYCAADVIYSGDYWGQGTQVTVSS	high polyreactivity
QVQLVESGGGLVQAGGSIRLSCAPSGRTFRYYAMGWYRQAPGKERELVAAISRSGGSTYYADSVKGRFTISRDNAKNTVYLQMNSLKPEVTAVYYCADRYYVPWFGPSKYTPYDYWGQGIQVTVSS	high polyreactivity
QVQLVESGGGLVQAGGSISLSCAASGFIFDDNAMGCYRQAPGKERELVAAISQGAGRTYYADSVKGRFTISRDNAKNTVYLQMNSVKPEDTAVYYCNSGRPKYWYGSKYDYWGQGTQVTVSS	low polyreactivity
QVQLVESGGGLVQAGGSLCLSCAASGIFVYNAIGWYRQAPGKEREFVAAINKSGASTFYADSVKGRFTISRDNAKNTVYLQMNRLKPEDTAVYYCRERDYWGQGTQVTVSS	low polyreactivity

Sequence	polyreactivity (PSR sort gate)
QVQLVESGGGLVQAGGSLGLSCAASGFTFRNYAMGCYRQAPGKERELVATLSASSGSTYYADSVKGRFTISRDNAKNTVYLQMNSLKPEDTAVYYCAAGLSGYSRKMYYWGQGTQVTESS	high polyreactivity
QVQLVESGGGLVQAGGSLGLSCAASGIILCYYDMGWYRQAPGKERELVAAITYSGSSTYYADSVKGRFTISRDNAKNTVYLLMNSLKPEDTAVYYCNAGWFYGAIWNYDYWGQGTKVTVSS	low polyreactivity
QVQLVESGGGLVQAGGSLGLSCAASGLTFSRYAMGWYREAPGKEWELVASISQGGGSTYYADSVKGRFTISRDNPKKTVYLQMNSLKPEDTAVYYCIRLTIGSSSYDYWGQGTKVTVSS	high polyreactivity
QVQLVESGGGLVQAGGSLGLSCAASGRTFAKYAMGWYRQAPGKERELVAAITRGDTTNYADSVKGRFTISRDNAKNTGYLQMHRLKPEDTAVYYCAATPDPPHTYEYWGQVTQVTVSS	low polyreactivity
QVQLVESGGGLVQAGGSLGLSCAASGSIFSSNVMGWYRQAPGKERELVAAISGGGGSTYYADSVKGRFTISRDNAKNTGYLQMNSLKPEDTAVYYCNRVTTWARTPKAYGYWGQGTQVTVSS	high polyreactivity
QVQLVESGGGLVQAGGSLGLSCAASGSIFTNYAMGWYRQAPGKERELVAAISVGGGRTYYADSVKGRFTISRDNAKNTVDLQMNSLKPEDTAVYYCAARYPFGSLGRYGYWGQGTQVTVSS	high polyreactivity
QVQLVESGGGLVQAGGSLGLSCAASGSILYYNAMGWYRQAPGKERELVAAISWSGGSKYDADSVKGRFTISRDNAKNTVYLQMNSQKPEDTAVYYCLYYRSDEMDYWGQGTQVTVSS	high polyreactivity
QVQLVESGGGLVQAGGSLGLSCAASGSTFLHDAMGWYRQAPGKERELVAAISVSGVRTYYADSVKGRFTISRDNGKNTVYLQMNSLKPEDTAVYYCAADGHHADYDFWGQGTQVTVSS	low polyreactivity
QVQLVESGGGLVQAGGSLGVSCAASGSTFRTYAMGWYRQAPGKERELVAAISQRGGSTYYADSVKGRFTISRDNAKNTVYLQMNSLTPEDSAVYYCAARYGVRYIYRMDYWGQGSQVTVSS	high polyreactivity
QVQLVESGGGLVQAGGSLHLSCAASGSIFRKNAMGWYRQAPGKERELVAVITSSGASTYYADSVKGRFTISRDNAKNTVYLQMNSLKPEDTAVYYCNAPSFYTKKMYSWGQGTQVTVSS	high polyreactivity
QVQLVESGGGLVQAGGSLLLSCAASASTISYKAMGWYRHAPGQETELVAAIDRSVSTNYADSVKGRFTISRDNAKNTVYLQMNSLKPEDTAVYYCNARHPTDDIVIYDYWGQGTQVTVSS	low polyreactivity
QVQLVESGGGLVQAGGSLLLSCAASGFTFQYYAMGWYRPEPGKERELVASISWSGGSTYYADSVKGRFTISRDNAKNTVYLQMHSLKPEDTAVYYCAATVTYFFSSARFSAYGYWGQGTQVTVSS	high polyreactivity
QVQLVESGGGLVQAGGSLLLSCAASGFTFSYYAMGWYRPAPGKERELVAAINWNGGSTYYADSVKGRFTISRDNAKNTVYLQMNSLKPEDTAVYYCNARQSYRYSQHGYWGQGTQLTVSS	high polyreactivity
QVQLVESGGGLVQAGGSLLLSCAASGIIFSEYDMGWYRQAPGKESELVAAISKSGGRTYYADSVKVRFTISRDNAKNTGFLQMNSLKQEDTAVYYCAAGGRFRFTQYYKHYYWGQGTQVNVSS	high polyreactivity
QVQLVESGGGLVQAGGSLLLSCAASGITFIRNGMGWYRPAPGKERELVAAISDTGARTYYADSVKGRFTISRDNAKNTVYLQMNSLKPEDTAVYYCAADFQTYWSHLYGYIGQYDYWGQGTQVTVSS	low polyreactivity
QVQLVESGGGLVQAGGSLLLSCAASGRIFRVYAMGWYRQAPGKERELVASITTSGSTYYADSVKGRFTISRDNAKNTVYLQMNSLKPEDTAVYYCAVDNYYTPWYPYLGYDSWGQGTQVTVSS	low polyreactivity
QVQLVESGGGLVQAGGSLLLSCAASGRIFRYYAMGWYRQATGKERELVAGISWRGSSTYYADSVKGRFTISRDNATNTVYLQMNSLKPEDTAVYYCNRDQSYIPFTGGRFYYWGQGTQVTVSS	high polyreactivity
QVQLVESGGGLVQAGGSLLLSCAASGRTFILNAMGWYSQAPGKERELVAAISWSGGSTYYADSVKGRFTISRDNAKNTVYLQMNSLKPEDTAVYYCAAETYAYLFHTYDYWGQGTQVTVSS	low polyreactivity
QVQLVESGGGLVQAGGSLLLSCAASGRTFNVYAMGRYRQAPGKERELVAAINRGGRTNYADSVKGRYTISRDNAKNTVYLQMNSLKPEDTAVYYCAALRVYVNWHKIGYDYWGQGTQVTVSS	low polyreactivity
QVQLVESGGGLVQAGGSLLLSCAASGRTFQDNAMGWYRQAPGKERELVAAISWRGGSTNYADSVKGRFTISRDNAKNTVYLQMNSLKPEDTAVYYCTRDPRKYGKLDYWGQGTQVTVSS	low polyreactivity
